Laboratory results published in patent US20190030126A1, “Inhibitors of the Interaction BCL-2 L10 / IP3 Receptors” (Universite Claude Bernard - Lyon 1, priority 2016, published 2019).
Where “and” joins values, the source holds several entries; their conditions need not be identical. Identical values can stand only once. No end group written: not given here.

How the values were obtained:
[1] = target: T1, interaction of Bcl-2 L10/Nrh with the BD domain of the receptor IP3R1 (Homo sapiens, UniProt Q9HD36); assay: Immunoprecipitation (anti-HA) of the Flag-Nrh / HA-hBD interaction in HeLa cells co-transfected with peptide plasmids; type: cell-based; settings: peptides Flag-tagged, fused to cytochrome b5 domain, plasmid ratio 1:2
T1 construct: expressed in transfected cells; host or cells: HeLa
T1 sequence (Q9HD36 11-204): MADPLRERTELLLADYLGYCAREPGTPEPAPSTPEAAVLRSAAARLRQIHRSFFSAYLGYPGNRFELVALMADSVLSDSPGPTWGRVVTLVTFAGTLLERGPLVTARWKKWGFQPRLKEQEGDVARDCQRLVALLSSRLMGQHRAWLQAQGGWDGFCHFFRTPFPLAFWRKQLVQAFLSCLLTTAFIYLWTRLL
From the text: (B) Quantification of the Nrh-IP3R1 interaction by immunoprecipitation experiments with anti-HA antibodies in HeLa cells transfected with plasmids coding for Flag-Nrh, HA-hBD and the different point mutants of the peptides Nrh 1-23 Flag-tagged with a ratio of 1:2 (N=3).
FIG. 5B presents the ability of these different peptides to inhibit the interaction of Bcl-2 L10/Nrh with the BD domain of the receptor IP3R1. This interaction is quantified by the immunoprecipitation technique, the BD domain being tagged with an HA epitope and the protein Bcl-2 L10/Nrh being tagged with a Flag epitope.
HeLa cells are transfected with plasmids coding for Flag-Nrh, HA-hBD and the different point mutants of the peptide Nrh 1-23 Flag-tagged with a ratio of 1:2, and immunoprecipitation is carried out with an anti-HA antibody.

[2] = target: endogenous protein Bcl-2 L10/Nrh (in cells) (human) (UniProt Q9HD36); assay: cell-based or functional assay
[3] = target: T2, interaction between the endogenous proteins Nrh and IP3R1 (Homo sapiens, UniProt Q9HD36); assay: Proximity ligation assay (PLA) of endogenous Nrh and IP3R1 in MDA-MB-231 cells; type: cell-based; settings: for inhibition of the Nrh/IP3R1 interaction relative to the limit value: conclusion of the PLA experiment; for percentage inhibition of the Nrh/IP3R1 interaction: with 488 nm flash
T2 construct: endogenous in cells; host or cells: MDA-MB-231
T2 sequence (Q9HD36 11-204): T1 sequence (Q9HD36 11-204)
Experimental: (A) Proximity ligation assay (PLA) experiments allowing for the detection of the interaction between the endogenous proteins Nrh and IP3R1 in MDA-MB-231 cells.
The MDA-MB-231 cells are incubated for 4 h with the peptide TAT Nrh-1-23 (SEQ ID NO. 4) or the control peptide TAT-Nrh 1-23 Y16F (SEQ ID NO 12, 14 and 6). After 3 washes of the cells, a 488 nm laser is used to excite the fluorophore (FITC) present in the endosomes, rupture the endosomal membrane and release the TAT-FITC peptides into the cytosol. The cells are incubated for 12 h then fixed, and the interaction between Nrh and IP3R1 is quantified by PLA using a rabbit anti-Nrh primary antibody and a mouse anti-IP3R1 primary antibody. This step is followed by incubation with a mixture of anti-rabbit and anti-mouse secondary antibodies, each coupled to a complementary nucleotide probe. A step of ligation then amplification is then carried out in the presence of fluorescent nucleotides, making it possible to amplify a specific signal in the case of spatial proximity of the probes. The fluorescence signal, in which each dot corresponds to an interaction in the cell, is recorded by means of a Nikon NiE fluorescence microscope. The images are quantified by the Image J software, and the interaction score is represented on the graph as number of dots per cell (N=3).

Flag-Nrh (Bcl-2 L10) = target: T3, Flag-Nrh (Bcl-2 L10) (Homo sapiens, UniProt Q9HD36); assay: Streptavidin pull-down with biotin-labelled peptide, HeLa extracts expressing Flag-Nrh; type: binding; settings: 5 μg of biotin-labelled peptide
T3 construct: expressed in transfected cells; host or cells: HeLa (cellular extracts)
T3 sequence (Q9HD36 1-204): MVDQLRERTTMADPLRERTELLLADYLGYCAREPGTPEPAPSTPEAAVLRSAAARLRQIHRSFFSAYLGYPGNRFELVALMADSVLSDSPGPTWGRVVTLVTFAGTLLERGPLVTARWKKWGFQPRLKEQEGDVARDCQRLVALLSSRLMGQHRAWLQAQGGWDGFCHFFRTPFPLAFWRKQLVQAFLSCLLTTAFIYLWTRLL
Experimental: (§1) (A) Streptavidin pull-down in HeLa cells transfected with either empty vector pCS2+, Flag-Nrh, HA-hBD or HA-BECN1, which cellular extracts were incubated or not with 5 μg of biotin-labelled Nrh 1-23 peptide.
(§2) (B) Streptavidin pull-down in HeLa cells transfected with either empty vector pCS2+, Flag-Nrh, or Flag-Nrz, which cellular extracts were incubated with 5 μg of biotin-labelled Nrh 1-23 peptide or Nrh 1-23 R6A Y16F double mutant peptide.
(§3) (A) HeLa cells were transfected with either empty vector pCS2+, Flag-Nrh, HA-hBD or HA-Beclin1 (referred to as HA-BECN1), a protein well known for its binding capacities to Nrh, then cellular extracts were incubated or not with 5 μg of biotin-labelled Nrh 1-23 wild-type peptide. Streptavidin is used for pulling-down the complexes comprising biotin-labelled Nrh peptide.
(§4) Streptavidin is used for pulling-down the complexes comprising biotin-labelled Nrh peptide.

[4] = target: T4, HA-hBD (IP3 binding domain of IP3R1) (Homo sapiens, UniProt Q14643); assay: Streptavidin pull-down with biotin-labelled peptide, HeLa extracts expressing HA-hBD; settings: 5 μg of biotin-labelled peptide
T4 construct: extending from residue 226 to residue 565 in the human protein; expressed in transfected cells; host or cells: HeLa (cellular extracts)
Experimental: as §1, §3

HeLa cells = assay: Test of apoptosis (SR-FLICA, caspase activity) in transfected HeLa cells treated with thapsigargin; type: cell-based, human; settings: 10 μM thapsigargin for 24 h; for potentiation of thapsigargin effect on caspase activity: HeLa cells transfected with peptide construct (fused to Cb5)
Experimental: (B) Test of apoptosis (SR-FLICA) in response to 10 μM of thapsigargin for 24 h in HeLa cells transfected with the empty vector pCS2+ or the constructs coding for Nrh-WT (wild-type), Nrh-ActA, Nrh-cb5, Nrh-dTM or Nrh-dBH4 (N=3). ***, p<0.001;**, p<0.01; n.s. p>0.1 (Student t-test).
(C) Test of apoptosis (SR-FLICA) in response to 10 μM of thapsigargin for 24 h in HeLa cells transfected with the empty vector pCS2+ or the constructs coding for the peptides Nrh 1-23, Nrh 1-23 Y16F or Nrh 1-23 C20A (N=3). ***, p<0.001;**, p<0.01; n.s. p>0.1 (Student t-test).
The effects of these various proteins were observed after transfection of HeLa cells by the empty vector pCS2+ or with the constructs coding for Nrh, Nrh-ActA, Nrh-cb5, dTM or dBH4.

[5] = target: T5, Nrh homodimer (Flag-Nrh / HA-Nrh) (Homo sapiens, UniProt Q9HD36); assay: Co-immunoprecipitation (anti-HA) of Flag-Nrh and HA-Nrh: Nrh homodimerisation; type: binding; settings: incubation with the peptide
T5 construct: the ability of the whole protein Nrh (Bcl-2 L10) to dimerise
T5 sequence (Q9HD36 11-204): T1 sequence (Q9HD36 11-204)
From the text: Quantification of the interaction between Flag-Nrh and HA-Nrh using co-immunoprecipitation with anti-HA antibody.
FIG. 7 illustrates the quantification of the interaction between Flag-Nrh and HA-Nrh using co-immunoprecipitation with anti-HA antibody. Formation of a Nrh homodimer is observed.

Flag-Nrz = assay: Streptavidin pull-down with biotin-labelled peptide, HeLa extracts expressing Flag-Nrz; type: binding, zebrafish; settings: 5 μg of biotin-labelled peptide
Experimental: as §2, §4

[6] = target: endogenous protein Bcl-2 L10/Nrh (in cells) (human) (UniProt Q9HD36); assay: proximity ligation assay of endogenous Nrh and IP3R1, MDA-MB-231 cells; against the vehicle control
[7] = target: endogenous protein Bcl-2 L10/Nrh (in cells) (human) (UniProt Q9HD36); assay: proximity ligation assay of endogenous Nrh and IP3R1, MDA-MB-231 cells; against the no-flash control
[8] = target: endogenous protein Bcl-2 L10/Nrh (in cells) (human) (UniProt Q9HD36); assay: proximity ligation assay of endogenous Nrh and IP3R1, MDA-MB-231 cells; as a function of the negative control
[9] = target: T6, HA-hBD (IP3 ligand binding domain of human IP3R1 tagged with an HA epitope) (human, UniProt Q14643-2 226-565, limits assumed); assay: streptavidin pull-down from extracts of transfected HeLa cells
T6 construct: Expressed in HeLa cells; also called HA-hBD IP3R1; BD domain of the receptor IP3R1

[10] = 488 nm flash used to release the peptide

T4 sequence (Q14643 226-565): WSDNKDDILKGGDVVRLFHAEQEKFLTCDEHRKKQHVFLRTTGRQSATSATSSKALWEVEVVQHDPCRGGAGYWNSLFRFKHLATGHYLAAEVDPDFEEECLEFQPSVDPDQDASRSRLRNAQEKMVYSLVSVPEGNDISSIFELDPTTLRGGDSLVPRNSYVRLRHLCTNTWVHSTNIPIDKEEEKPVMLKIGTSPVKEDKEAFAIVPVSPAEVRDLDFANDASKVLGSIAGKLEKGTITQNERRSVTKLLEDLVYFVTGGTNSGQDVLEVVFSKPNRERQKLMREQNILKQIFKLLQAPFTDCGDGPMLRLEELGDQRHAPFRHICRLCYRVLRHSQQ
T6 sequence (Q14643 other isoform, or with tags, fused parts or gaps limits assumed): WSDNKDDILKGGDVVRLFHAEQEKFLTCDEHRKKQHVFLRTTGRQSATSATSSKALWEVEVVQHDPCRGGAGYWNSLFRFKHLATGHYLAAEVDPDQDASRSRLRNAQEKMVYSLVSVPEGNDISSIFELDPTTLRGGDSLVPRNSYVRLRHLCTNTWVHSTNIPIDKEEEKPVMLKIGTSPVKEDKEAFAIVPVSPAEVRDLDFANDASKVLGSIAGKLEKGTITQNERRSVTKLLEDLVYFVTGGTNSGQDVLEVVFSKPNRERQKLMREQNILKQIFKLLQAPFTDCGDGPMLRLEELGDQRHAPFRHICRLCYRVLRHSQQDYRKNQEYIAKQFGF

## MADPLRERTELLLADFLGYCARE (Synthetic peptide Y16F) [Nrh Y16F, point mutant of Nrh 1-23, non-functional]
[1]
  ability to inhibit the Nrh/IP3R1 BD interaction (Flag-Nrh band on Western blot after anti-HA immunoprecipitation): still visible, albeit faintly

## peptide Nrh 1-23 fused at the C-terminal end with the cytochrome b5 targeting domain, Flag-tagged
[2]
  caspase activity (SR-FLICA apoptosis test), HeLa cells, 10 µM thapsigargin for 24 h: 2 fold

## RKKRRQRRRGGSGGADPLRERTELLLADYLGYCARE [TAT Nrh 1-23]
[3]; [10]
  PLA interaction score Nrh/IP3R1: 11±1 dots per cell
[3]
  inhibition of the Nrh/IP3R1 interaction relative to the limit value: at least 30%
[3]; in the absence of 488 nm flash (no release of the peptides into the cytosol)
  PLA interaction score Nrh/IP3R1: 87±6 dots per cell
[3]; negative control = TAT Nrh 1-23 without flash (87 dots per cell)
  percentage inhibition of the Nrh/IP3R1 interaction: 87%
[3]; negative control = vehicle (80 dots per cell)
  percentage inhibition of the Nrh/IP3R1 interaction: 86%

## MADPLRERTELLLADYLGYCARE [Nrh 1-23]
Flag-Nrh (Bcl-2 L10)
  interaction with Nrh (pull-down): only able to interact with Nrh
[4]
  interaction with HA-hBD (pull-down): not with HA-hBD
HeLa cells
  potentiation of thapsigargin effect on caspase activity: virtually doubled
[1]
  ability to inhibit the Nrh/IP3R1 BD interaction (Flag-Nrh band on Western blot after anti-HA immunoprecipitation): dissociate the Nrh/IP3R1 interaction
[5]
  prevention of Nrh homodimerisation: can be prevented
Flag-Nrz
  interaction with Nrz (pull-down): not Nrz

## MADPLRERTELLLADYLGYAARE (Synthetic peptide C20A) [Nrh C20A, point mutant of Nrh 1-23, functional]
HeLa cells
  potentiation of thapsigargin effect on caspase activity: this effect is maintained
[1]
  ability to inhibit the Nrh/IP3R1 BD interaction (Flag-Nrh band on Western blot after anti-HA immunoprecipitation): dissociate the Nrh/IP3R1 interaction

## Nrh 1-23 R6A Y16F: biotin-labelled Nrh 1-23 R6A Y16F double mutant peptide (MADPLAERTELLLADFLGYCARE; also: biotin-labelled (position not given here))
Flag-Nrh (Bcl-2 L10)
  interaction with Nrh (pull-down): reduced interaction with Nrh

## control peptide TAT-Nrh 1-23 Y16F, FITC-coupled
[6]
  percentage inhibition of the Nrh/IP3R1 interaction: 18.8%
[7]
  percentage inhibition of the Nrh/IP3R1 interaction: 25%

## MADPLRERTELLLAAYLGYCARE (Synthetic peptide D15A) [Nrh D15A, point mutant of Nrh 1-23, functional]
[1]
  ability to inhibit the Nrh/IP3R1 BD interaction (Flag-Nrh band on Western blot after anti-HA immunoprecipitation): dissociate the Nrh/IP3R1 interaction

## TAT Nrh Y16F: combination of TAT (SEQ ID NO. 12), a spacer (SEQ ID NO. 14) and SEQ ID NO. 6 without the methionine; control outside the invention (RKKRRQRRRGGSGGADPLRERTELLLADFLGYCARE)
[3]; [10]
  PLA interaction score Nrh/IP3R1: 65±5 dots per cell
[3]
  inhibition of the Nrh/IP3R1 interaction relative to the limit value: < 30%

## MADPLAERTELLLADYLGYCARE (Synthetic peptide Peptide R6A) [Nrh R6A, point mutant of Nrh 1-23, non-functional]
[1]
  ability to inhibit the Nrh/IP3R1 BD interaction (Flag-Nrh band on Western blot after anti-HA immunoprecipitation): still visible, albeit faintly

## peptide TAT-Nrh 1-23 (TAT-spacer-domain of binding to IP3Rs without methionine), FITC-coupled
[8]
  percentage inhibition of the Nrh/IP3R1 interaction: 86% and 87%

## C/C=C(/C)C(=O)O[C@H]1C(C)=C2[C@H]([C@@H]1OC(=O)CCCCCCC)[C@@](C)(OC(C)=O)C[C@H](OC(=O)CCC)[C@@]1(O)[C@H]2OC(=O)[C@@]1(C)O [thapsigargin, reference compound]
HeLa cells; HeLa control cells (empty vector pCS2+)
  caspase activity: greatly induced

B1: Bcl-2 L10/Nrh-WT: the human Bcl-2 L10/Nrh protein in its wild-type, whole form, expressed from a transfected construct (protein, UniProt Q9HD36 1-204, looked up)
chain: T3 sequence (Q9HD36 1-204)
modifications: full-length
notes: the human Bcl-2 L10/Nrh protein in its wild-type, whole form, expressed from a transfected construct
HeLa cells; HeLa cells overexpressing Nrh construct
  effect on thapsigargin-induced caspase activity (apoptosis-blocking effect): reduced by half

B2: biotin-labelled Nrh 1-23 wild-type peptide (peptide)
peptide: MADPLRERTELLLADYLGYCARE
modifications: also: biotin-labelled (position not given here)
notes: 3 (same without the first methionine); also called biotin-labelled Nrh 1-23 peptide
[9]
  binding result: no binding (tested: 5 µg of biotin-labelled peptide)
